This assay deals with T1, MUC16 membrane-proximal region (UniProt Q8WXI7 13810-14451).
T1 construct: domain: membrane-proximal region
T1 sequence: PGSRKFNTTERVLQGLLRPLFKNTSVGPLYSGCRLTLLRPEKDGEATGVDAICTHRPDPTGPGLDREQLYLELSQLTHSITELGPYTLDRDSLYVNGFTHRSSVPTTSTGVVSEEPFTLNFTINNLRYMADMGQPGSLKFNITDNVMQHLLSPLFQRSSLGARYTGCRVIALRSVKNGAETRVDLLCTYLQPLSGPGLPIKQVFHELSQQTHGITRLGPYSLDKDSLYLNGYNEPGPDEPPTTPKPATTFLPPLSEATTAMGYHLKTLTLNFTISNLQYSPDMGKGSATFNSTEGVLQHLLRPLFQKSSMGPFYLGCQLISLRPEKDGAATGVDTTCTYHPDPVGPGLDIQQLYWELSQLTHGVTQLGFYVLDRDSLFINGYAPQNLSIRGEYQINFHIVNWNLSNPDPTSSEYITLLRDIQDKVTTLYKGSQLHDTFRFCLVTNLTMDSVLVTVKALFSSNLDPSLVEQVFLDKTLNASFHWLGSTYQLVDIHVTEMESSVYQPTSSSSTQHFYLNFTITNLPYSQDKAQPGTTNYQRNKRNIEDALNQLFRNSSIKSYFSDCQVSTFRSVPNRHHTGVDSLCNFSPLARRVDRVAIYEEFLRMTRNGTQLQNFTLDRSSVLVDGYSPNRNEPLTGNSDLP
Description: FIG. 7A; method not named in the legend (Octet BLI or flow cytometry per the methods).

Data on one molecule can be found in patent US20250066478A1 (IBIO, published 2025).

B1: 21G6 long linker mask on VH domain (antibody)
VH: NFTLDRSSVLVDGYSPNRNEPLTGNSDLPGGGGSSGGPGPAGMKGLPGSQVQLQESGPGLVKPSQTLSLTCTVSGYSITSDYAWNWIRQPPGKGLEWIGYISYSGSTIYNPSLKSRISISVDTSKNQFSLKLNSVTAADTAVYYCATLGLDYWGQGTLVTVSS
VL: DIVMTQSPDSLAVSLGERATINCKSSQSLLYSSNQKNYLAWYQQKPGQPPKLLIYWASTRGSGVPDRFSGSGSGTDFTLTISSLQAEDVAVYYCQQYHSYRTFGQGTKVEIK
notes: the methods give the format as IgG or scFv
Take B1: the binding result is recorded as “no binding”.
